B1: DFFB (parent)
chain: TLVEAIKEQDGREVDWEYFYGLLF
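Further: lentivirally expressed fusions sorted by FACS into six bins by GFP to DsRed ratio, PSI derived from sequencing read proportions per bin multiplied by bin number.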

Variants of B1 are the subject of the data set. Description: protein stability index of a GFP-peptide fusion (GPS, HEK-293T) (PSI 1-6); higher = more stable. Conditions: c terminus: a fixed tail appended.
Take TLVEAIKEQDGREVDWEYFYGLHF [L23H]: the protein stability index came to 2.07.

Consider TLVEAIKEQDGREVDWEYFYGLDF [L23D], for which the protein stability index was 2.

For TLVEAIKEQDGREVDWEYFYGLKF [L23K], the protein stability index is 2.03.

Take TLVEAIKEQDGREVDWEYFYGLPF [L23P]: the protein stability index came to 2.18.

Turning to TLVEAIKEQDGREVDWEYFYGLFF [L23F], the protein stability index is 2.26.

As for TLVEAIKEQDGREVDWEYFYGLSF [L23S], the protein stability index worked out at 2.1.

As to TLVEAIKEQDGREVDWEYFYGLQF [L23Q], the protein stability index stood at 2.37.

For the variant TLVEAIKEQDGREVDWEYFYGLEF [L23E], the protein stability index was 2.19.

As for TLVEAIKEQDGREVDWEYFYGLRF [L23R], the protein stability index amounted to 2.5.

For TLVEAIKEQDGREVDWEYFYGLYF [L23Y], the protein stability index was 2.86.

Regarding TLVEAIKEQDGREVDWEYFYGMLF [L22M], the protein stability index stood at 1.85.

TLVEAIKEQDGREVDWEYFYGALF [L22A]: the protein stability index was 2.

As to TLVEAIKEQDGREVDWEYFYGWLF [L22W], the protein stability index was 1.1.

For TLVEAIKEQDGREVDWEYFYGYLF [L22Y], the protein stability index was determined as 1.86.

In the case of TLVEAIKEQDGREVDWEYFYGSLF [L22S], the protein stability index is 2.49.

TLVEAIKEQDGREVDWEYFYGHLF [L22H]: the protein stability index came to 2.43.

Turning to TLVEAIKEQDGREVDWEYFYGCLF [L22C], the protein stability index came out at 2.04.

For the variant TLVEAIKEQDGREVDWEYFYGILF [L22I], the protein stability index was found to be 1.97.

Consider TLVEAIKEQDGREVDWEYFYGELF [L22E], for which the protein stability index came out at 2.51.

Take TLVEAIKEQDGREVDWEYFYGTLF [L22T]: the protein stability index was determined as 2.58.

TLVEAIKEQDGREVDWEYFYGVLF [L22V]: the protein stability index stood at 1.96.

Consider TLVEAIKEQDGREVDWEYFYGFLF [L22F], for which the protein stability index came to 1.52.

Regarding TLVEAIKEQDGREVDWEYFYGRLF [L22R], the protein stability index is 1.8.

In the case of TLVEAIKEQDGREVDWEYFYGQLF [L22Q], the protein stability index amounted to 2.94.

As to TLVEAIKEQDGREVDWEYFYGDLF [L22D], the protein stability index amounted to 2.62.

On to TLVEAIKEQDGREVDWEYFYGPLF [L22P], for which the protein stability index was 3.28.

Turning to TLVEAIKEQDGREVDWEYFYGLLC [F24C], the protein stability index is 2.23.

In the case of TLVEAIKEQDGREVDWEYFYGLLT [F24T], the protein stability index is 2.42.

As for TLVEAIKEQDGREVDWEYFYGLLA [F24A], the protein stability index stood at 1.69.

Consider TLVEAIKEQDGREVDWEYFYGLLD [F24D], for which the protein stability index was determined as 2.21.

As for TLVEAIKEQDGREVDWEYFYGLLE [F24E], the protein stability index came out at 2.22.

Consider TLVEAIKEQDGREVDWEYFYGLLL [F24L], for which the protein stability index came out at 1.7.

As to TLVEAIKEQDGREVDWEYFYGLLP [F24P], the protein stability index amounted to 2.53.

For the variant TLVEAIKEQDGREVDWEYFYGLLI [F24I], the protein stability index amounted to 1.93.

Regarding TLVEAIKEQDGREVDWEYFYGLLW [F24W], the protein stability index stood at 1.07.

In the case of TLVEAIKEQDGREVDWEYFYGLLK [F24K], the protein stability index was found to be 1.79.

With TLVEAIKEQDGREVDWEYFYGLLH [F24H], the protein stability index was found to be 2.2.

With TLVEAIKEQDGREVDWEYFYGLLN [F24N], the protein stability index is 1.95.

For TLVEAIKEQDGREVDWEYFYGLLR [F24R], the protein stability index is 1.63.

As for TLVEAIKEQDGREVDWEYFYGLLY [F24Y], the protein stability index worked out at 2.31.

As for TLVEAIKEQDGREVDWEYFYGLLQ [F24Q], the protein stability index stood at 2.27.

Turning to TLVEAIKEQDGREVDWEYFYGLLS [F24S], the protein stability index worked out at 2.52.

TLVEAIKEQDGREVDWEYFQGLLF [Y20Q]: the protein stability index turned out to be 2.07.

TLVEAIKEQDGREVDWEYFCGLLF [Y20C]: the protein stability index amounted to 1.92.

Consider TLVEAIKEQDGREVDWEYFIGLLF [Y20I], for which the protein stability index amounted to 1.78.

For TLVEAIKEQDGREVDWEYFNGLLF [Y20N], the protein stability index is 2.25.

On to TLVEAIKEQDGREVDWEYFPGLLF [Y20P], for which the protein stability index was 2.67.

In the case of TLVEAIKEQDGREVDWEYFFGLLF [Y20F], the protein stability index was 1.93.

As for TLVEAIKEQDGREVDWEYFDGLLF [Y20D], the protein stability index was 2.36.

With TLVEAIKEQDGREVDWEYFTGLLF [Y20T], the protein stability index turned out to be 1.54.

For TLVEAIKEQDGREVDWEYFRGLLF [Y20R], the protein stability index is 2.67.

With TLVEAIKEQDGREVDWEYFVGLLF [Y20V], the protein stability index came to 2.42.

Consider TLVEAIKEQDGREVDWEYFHGLLF [Y20H], for which the protein stability index stood at 2.03.

Regarding TLVEAIKEQDGREVDWEYFMGLLF [Y20M], the protein stability index amounted to 2.64.

For TLVEAIKEQDGREVDWEYFAGLLF [Y20A], the protein stability index came to 2.03.

Turning to TLVEAIKEQDGREVDWEYFGGLLF [Y20G], the protein stability index was determined as 1.79.

For TLVEAIKEQDGREVDWEYFEGLLF [Y20E], the protein stability index was 1.67.

For the variant TLVEAIKEQDGREVDWEYFLGLLF [Y20L], the protein stability index is 1.53.

Consider TLVEAIKEQDGREVDWEYFWGLLF [Y20W], for which the protein stability index amounted to 1.72.

For TLVEAIKEQDGREVDWEYFSGLLF [Y20S], the protein stability index was 1.33.

For the variant TLVEAIKEQDGREVDWEYFKGLLF [Y20K], the protein stability index worked out at 1.6.

On to TLVEAIKEQDGREVDWEYFYQLLF [G21Q], for which the protein stability index came to 2.25.

TLVEAIKEQDGREVDWEYFYILLF [G21I]: the protein stability index worked out at 1.34.

For the variant TLVEAIKEQDGREVDWEYFYKLLF [G21K], the protein stability index stood at 2.31.

As to TLVEAIKEQDGREVDWEYFYELLF [G21E], the protein stability index is 1.93.

With TLVEAIKEQDGREVDWEYFYLLLF [G21L], the protein stability index came to 1.35.

As for TLVEAIKEQDGREVDWEYFYTLLF [G21T], the protein stability index amounted to 1.88.

As for TLVEAIKEQDGREVDWEYFYHLLF [G21H], the protein stability index amounted to 2.37.

In the case of TLVEAIKEQDGREVDWEYFYCLLF [G21C], the protein stability index was found to be 1.72.

As to TLVEAIKEQDGREVDWEYFYRLLF [G21R], the protein stability index was 1.84.

Consider TLVEAIKEQDGREVDWEYFYNLLF [G21N], for which the protein stability index was determined as 1.87.

Turning to TLVEAIKEQDGREVDWEYFYSLLF [G21S], the protein stability index was determined as 2.

Consider TLVEAIKEQDGREVDWEYFYVLLF [G21V], for which the protein stability index is 1.08.

On to TLVEAIKEQDGREVDWEYFYPLLF [G21P], for which the protein stability index stood at 1.46.

TLVEAIKEQDGREVDWEYFYYLLF [G21Y]: the protein stability index worked out at 1.53.

For TLVEAIKEQDGREVDWEYFYMLLF [G21M], the protein stability index is 2.26.

For the variant TLVEAIKEQDGREVDWEYFYWLLF [G21W], the protein stability index stood at 1.83.

For the variant TLVEAIKEQDGREVDWEYKYGLLF [F19K], the protein stability index amounted to 3.22.

With TLVEAIKEQDGREVDWEYVYGLLF [F19V], the protein stability index was found to be 1.42.

As to TLVEAIKEQDGREVDWEYHYGLLF [F19H], the protein stability index came out at 2.5.

As for TLVEAIKEQDGREVDWEYWYGLLF [F19W], the protein stability index came out at 2.39.

TLVEAIKEQDGREVDWEYQYGLLF [F19Q]: the protein stability index turned out to be 3.44.

Turning to TLVEAIKEQDGREVDWEYLYGLLF [F19L], the protein stability index came to 2.1.

For TLVEAIKEQDGREVDWEYDYGLLF [F19D], the protein stability index was determined as 2.76.

TLVEAIKEQDGREVDWEYCYGLLF [F19C]: the protein stability index is 2.04.

With TLVEAIKEQDGREVDWEYNYGLLF [F19N], the protein stability index was 2.24.

Take TLVEAIKEQDGREVDWEYRYGLLF [F19R]: the protein stability index was 2.31.

Turning to TLVEAIKEQDGREVDWEYTYGLLF [F19T], the protein stability index is 2.69.

As for TLVEAIKEQDGREVDWEYIYGLLF [F19I], the protein stability index is 1.55.

In the case of TLVEAIKEQDGREVDWEYMYGLLF [F19M], the protein stability index came to 2.17.

On to TLVEAIKEQDGREVDWEYSYGLLF [F19S], for which the protein stability index was determined as 2.68.

As for TLVEAIKEQDGREVDWEYPYGLLF [F19P], the protein stability index is 3.01.

Take TLVEAIKEQDGREVDWEYYYGLLF [F19Y]: the protein stability index is 2.19.

TLVEAIKEQDGREVDWEYAYGLLF [F19A]: the protein stability index turned out to be 1.9.

Source of the values: the supplement of paper PMC10567573.
